We go through one protein from publication doi:10.1101/2024.12.11.628028 (bioRxiv, 2024).

This data set concerns the molecule itself. As to the kind of experiment: crystal structure.

B1: Nicotinamide phosphoribosyltransferase (NAMPT), human, with N terminal His-tag (enzyme)
chain: MNPAAEAEFNILLATDSYKVTHYKQYPPNTSKVYSYFECREKKTENSKLRKVKYEETVFYGLQYILNKYLKGKVVTKEKIQEAKDVYKEHFQDDVFNEKGWNYILEKYDGHLPIEIKAVPEGFVIPRGNVLFTVENTDPECYWLTNWIETILVQSWYPITVATNSREQKKILAKYLLETSGNLDGLEYKLHDFGYRGVSSQETAGIGASAHLVNFKGTDTVAGLALIKKYYGTKDPVPGYSVPAAEHSTITAWGKDHEKDAFEHIVTQFSSVPVSVVSDSYDIYNACEKIWGEDLRHLIVSRSTQAPLIIRPDSGNPLDTVLKVLEILGKKFPVTENSKGYKLLPPYLRVIQGDGVDINTLQEIVEGMKQKMWSIENIAFGSGGGLLQKLTRDLLNCSFKCSYVVTNGLGINVFKDPVADPNKRSKKGRLSLHRTPAGNFVTLEEGKGDLEEYGQDLLHTVFKNGKVTKSYSFDEIRKNAQLNIELEAAHH
Turning to B1, the binding result is recorded as “binds”.
